# Laboratory results as given in the supplement of paper PMC10899765.
# What was measured:
# Settings in all cases: 20 nM; 72 h
# MCF10A [1] = test: percent viability (nuclei count relative to siNT); higher = more viable cells
# Experimental: (§1)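 After 72 h, cells were fixed and stained with Hoechst and anti-fibrillarin, and nucleoli per nucleus were counted with CellProfiler. Values are plate-adjusted percent effect for the one-nucleolus and 5+ nucleoli phenotypes, normalised to siNT (0%) and to the positive controls siNOL11 or siKIF11 (100%), as the mean of biological triplicates. Percent viability is the nuclei count relative to siNT.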
# MCF10A [2] = test: 5+ nucleoli phenotype percent effect (relative to siNT 0% and siKIF11 100%); higher = more cells with five or more nucleoli
# Experimental: as §1
# MCF10A [3] = test: one-nucleolus phenotype percent effect (relative to siNT 0% and siNOL11 100%); higher = more cells with one nucleolus (ribosome biogenesis inhibition)
# Experimental: as §1
Sequence,percent viability (MCF10A [1]),5+ nucleoli phenotype percent effect (MCF10A [2]),one-nucleolus phenotype percent effect (MCF10A [3])
AGGGGGUAGAAAGUGGCUGAAG [hsa-miR-6835-5p],14.9%,-24.3%,11.4%
AAAAGUAACUGCGGUUUUUGA [hsa-miR-548ak],89.9%,45.4%,-23.5%
AGCUGUAAUUAGUCAGUUUUCU [hsa-miR-1537-5p],117%,31.8%,-20.9%
UUGGACUUUUUCAGAUUUGGGGAU [hsa-miR-5009-5p],43.5%,-5.29%,19.8%
UCAGGGAGUCAGGGGAGGGC [hsa-miR-4270],9.71%,-37.6%,36.8%
UGUGGAAGGUAGACGGCCAGAGA [hsa-miR-3190-3p],19.8%,-44%,42.7%
GACAUUCAGACUACCUG [hsa-miR-4262],86.4%,-5.77%,6.49%
AAUCAUACAGGGACAUCCAGUU [hsa-miR-487a],56%,-7.13%,-6.53%
GCUCAUCCCCAUCUCCUUUCAG [hsa-miR-6870-3p],115%,36.6%,-31.1%
CAAAACGUGAGGCGCUGCUAU [hsa-miR-424-3p],74.1%,-16.6%,-5.82%
AAGGGCUUCCUCUCUGCAGGAC [hsa-miR-3158-3p],12.1%,-9.95%,32.8%
ACCUUGCAUCUGCAUCCCCAG [hsa-miR-6841-3p],28.6%,-39.3%,15%
UGAGGUAGUAGAUUGUAUAGUU [hsa-let-7f-5p],123%,25.3%,-20.6%
AAAACUAGGACUGUGUGGUGUA [hsa-miR-7844-5p],40.6%,-30.8%,15.8%
CAGAGGGAAUACAGAGGGCAAU [hsa-miR-6873-5p],36.7%,7.98%,20%
UUGAGGAGACAUGGUGGGGGCC [hsa-miR-4689],103%,2.8%,12.3%
UGGCCCUUUGUACCCCUCCAG [hsa-miR-6851-3p],49.2%,54.7%,-21.4%
UGGUCUAGGAUUGUUGGAGGAG [hsa-miR-601],58.5%,-3.95%,22.9%
CAUGACGUCACAGAGGCUUCGC [hsa-miR-4757-3p],61.2%,36.1%,-14.4%
CUGUGCGUGUGACAGCGGCUGA [hsa-miR-210],56.6%,-13.9%,-1.99%
GUAAGGGACCGGAGAGUAGGA [hsa-miR-6892-5p],22.3%,-29%,20.5%
CAAAAACCGCAAUUACUUUUGCA [hsa-miR-548z],36%,-14.9%,0.602%
AUGGGUGAUGGGUGUGGUGU [hsa-miR-4701-3p],13.3%,-25%,47.1%
UAGCAAUACAGUACAAAUAUAGU [hsa-miR-4703-5p],131%,32.3%,-22%
